{"source": "patent US20230011916A1", "about": "“METHODS OF CANCER TREATMENT USING ANTI-OX40 ANTIBODIES IN COMBINATION WITH PI3 KINASE DELTA INHIBITORS” (BEIGENE, LTD., priority 2019, published 2023)", "molecular_target": "mouse OX40-His (Cat: ab221028, Abcam) (mouse) (UniProt P47741)", "sequence (P47741 20-211 limits assumed)": "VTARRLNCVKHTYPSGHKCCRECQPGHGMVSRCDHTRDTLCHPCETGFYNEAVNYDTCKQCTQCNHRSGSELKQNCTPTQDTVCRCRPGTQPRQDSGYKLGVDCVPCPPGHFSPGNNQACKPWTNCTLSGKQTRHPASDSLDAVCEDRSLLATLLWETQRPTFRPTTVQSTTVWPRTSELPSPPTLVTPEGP", "assay": "ELISA on coated mouse OX40-His"}
{"binder": "1A7.gr1 (antibody, from another filing, V domains shown) VH: EVQLVQSGAEVKKPGASVKVSCKASGYTFTDSYMSWVRQAPGQGLEWIGDMYPDNGDSSYNQKFRERVTITRDTSTSTAYLELSSLRSEDTAVYYCVLAPRWYFSVWGQGTLVTVSS VL: DIQMTQSPSSLSASVGDRVTITCRASQDISNYLNWYQQKPGKAPKLLIYYTSRLRSGVPSRFSGSGSGTDFTLTISSLQPEDFATYYCQQGHTLPPTFGQGTKVEIK", "values": [{"measurement": "EC50", "result": 0.11, "unit": "µg/mL"}]}
